Substitutions are numbered along the chain they refer to.
B1: unnamed (protein)
chain: MQTTVTTMLLASVALAACAGGGSTPLPLPQQQPPQQEPPPPPVPLASRAACEALKDGNGDMVWPNAATVVEVAAWRDAAPATASAAALPEHCEVSGAIAKRTGIDGYPYEIKFRLRMPAEWNGRFFMEGGGGTNGSLSAATGSIGGGQIASALSRNFATIATDGGHDNAVNDNPDALGTVAFGLDPQARLDMGYNSYDQVTQAGKAAVARFYGRAADKSYFIGCSEGGREGMMLSQRFPSHYDGIVAGAPGYQLPKAGISGAWTTQSLAPAAVGLDAQGVPLINKSFSDADLHLLSQAILGTCDALDGLADGIVDNYRACQAAFDPATAANPANGQALQCVGAKTADCLSPVQVTAIKRAMAGPVNSAGTPLYNRWAWDAGMSGLSGTTYNQGWRSWWLGSFNSSANNAQRVSGFSARSWLVDFATPPEPMPMTQVAARMMKFDFDIDPLKIWATSGQFTQSSMDWHGATSTDLAAFRDRGGKMILYHGMSDAAFSALDTADYYERLGAAMPGAAGFARLFLVPGMNHCSGGPGTDRFDMLTPLVAWVERGEAPDQISAWSGTPGYFGVAARTRPLCPYPQIARYKGSGDINTEANFACAAPP
B2: unnamed (protein)
chain: B1 chain with G131S, S225A
B3: unnamed (protein)
chain: B1 chain with G131S, F495I
B4: unnamed (protein)
chain: B1 chain with G131S, E226T
B5: unnamed (protein)
chain: MQTTVTTMLLASVALAACAGGGSTPLPLPQQQPPQQEPPPPPVPLASRAACEALKDGNGDMVWPNAATVVEVAAWRDAAPATASAAALPEHCEVSGAIAKRTGIDGYPYEIKFRLRMPAEWNGRFFMEGGSGTNGSLSAATGSIGGGQIASALSRNFATIATDGGHDNAVNDNPDALGTVAFGLDPQARLDMGYNSYDQVTQAGKAAVARFYGRAADKSYFIGWSEGGREGMMLSQRFPSHYDGIVAGAPWDSSTNFDLAAFRDRGGKMILYHGMSDAAFSALDTADYYERLGAAMPGAAGFARLFLVPGMNHSSGGPGTDRFDMLTPLVAWVERGEAPDQISAWSGTPGYFGVAARTRPLCPYPQIARYKGSGDINTEANFACAAPP
B6: unnamed (protein)
chain: B5 chain with W224C, S314C
B7: unnamed (protein)
chain: B5 chain with W224H, S314F
B8: unnamed (protein)
chain: MFVRNADRAKNCMRAPLRVFPLKDTFSAQCANVSVWITSSVPPLRERHMDRRVTRRDLMQTRILLMLIAATGVAACGGDGGSTPAAQNPPLPLASRAACEAFQGNSNSIAWPHRATVVEVATWHEAEPANATAAATPEHCEISGAIARRTGIDGYPYEIKFRLRMPSEWNGRFFMEGGGGTNGSLSAATGSLGGGQTASALSRNFATIATDGGHDNAVNNNPDALGTVAFGMDPQARIDMGYNSYDQVTQAGKAAVAQFYGRAPDKSYFIGCSEGGREGMMLSQRFPSHYDGIVAGAPGYQLPKAGISGAWTTQSLAPAAVGVDAQNVPLINKAFSDVDLHLLSRGILGTCDALDGLSDGIVNDFRACQAAFDPATALNPDTSQPLQCTGAKTPDCLSAAQVTGIKRAMGGPVDSAGAALYNRWAWDPGMSGLNGTSYNQGWRSWWLGSYASSTNNAQRVNGFSARSWLVDFATPPEPMPVTQVAARMMNFNFDTDPPKIRATSGPFTPSSMEWHGATSTNLAAFRDRGGKLMLYHGMSDAAFSALDTADYYERLGAAMPGAAGFARLFLVPGMNHCSGGPGTDRFDMLTPLVAWVERDKAPDQVSAWAGTPGYFGATARTRPLCPYPQIARYKGSGDINAEASFVCVAP
B9: unnamed (protein)
chain: MNFPRASRLMQAAVLGGLMAVSAAATAQTNPYARGPNPTAASLEASAGPFTVRSFTVSRPSGYGAGTVYYPTNAGGTVGAIAIVPGYTARQSSIKWWGPRLASHGFVVITIDTNSTLDQPSSRSSQQMAALRQVASLNGTSSSPIYGKVDTARMGVMGWSMGGGGSLISAANNPSLKAAAPQAPGYQLPKAGISGAWTTQSLAPAAVGLDAQGVPLINKSFSDADLHLLSQAILGTCDALDGLADGIVDNYRACQAAFDPATAANPANGQALQCVGAKTADCLSPVQVTAIKRAMAGPVNSAGTPLYNRWAWDAGMSGLSGTTYNQGWRSWWLGSFNSSANNAQRVSGFSARSWLVDFATPPEPMPMTQVAARMMKFDFDIDPLKIWATSGQFTQSSMDWHGATSTSSVTVPTLIFACENDSIAPVNSSALPIYDSMSRNAKQFLEINGGSHSCANSGNSNQALIGKKGVAWMKRFMDNDTRYSTFACENPNSTRVSDFRTANCS
B10: unnamed (protein)
chain: MQTTVTTMLLASVALAACAGGGSTPLPLPQQQPPQQEPPPPPVPLASRAACEALKDGNGDMVWPNAATVVEVAAYVPAGVNISMADNPSICGGDEDPITSTFAFCEVSGAIAKRTGIDGYPYEIKFRLRMPAEWNGRFFMEGGSGTNGCLSAATGSIGGGQIASALSRNFATIATDGGHDNAVNDNPDALGTVAFGLDPQARLDMGYNSYDQVTQAGKAAVARFYGRAADKSYFIGCSEGGREGMMLSQRFPSHYDGIVAGAPGYQLPKAGISGAWTTQSLAPAAVGLDAQGVPLINKSFSDADLHLLSQAILGTCDALDGLADGIVDNYRACQAAFDPATAANPANGQALQCVGAKTADCLSPVQVTAIKRAMAGPVNSAGTPLYNRWAWDAGMSGLSGTTYNQGWRSWWLGSFNSSANNAQRVSGFSARSWLVDFATPPEPMPMTQVAARMMKFDFDIDPLKIWATSGQFTQSSMDWHGATSTDLAAFRDRGGKMILYHCMSDAAFSALDTADYYERLGAAMPGAAGFARLFLVPGMNHCCGGPGTDRFDMLTPLVAWVERGEAPDQISAWSGTPGYFGVAARTRPLCPYPQIARYKGSGDINTEANFACAAPP

Substrate: MHET
Assay: Proxy for plastic degradation [kcat] (s⁻¹)
Conditions: pH 7.5

Protein | Proxy for plastic degradation
B1 | 11
B2 | 0
B3 | 1.3
B4 | 14
B5 | 0.1
B6 | 0.05
B7 | 0.06
B8 | 9.5
B9 | 0.11
B10 | 0.16

From the PETadex activity labels (doi:10.1073/pnas.2006753117)
